Reference: US20230145060A1
Read-outs that look alike come from different tables or passages of the source.

Key:
Assay in all cases: cell-based or functional assay
[1] = molecular target: HIV-1 Env of pseudovirus BG505 (HIV-1)
[2] = molecular target: HIV-1 Env of pseudovirus PV0 (HIV-1)
[3] = molecular target: HIV-1 Env of pseudovirus X2088 (HIV-1)
[4] = molecular target: HIV-1 Env of pseudovirus X1632 (HIV-1)
[5] = molecular target: HIV-1 Env of pseudovirus THRO (HIV-1)
[6] = molecular target: HIV-1 Env of pseudovirus Du422 (HIV-1)
[7] = molecular target: HIV-1 Env of pseudovirus ZM106 (HIV-1)
[8] = molecular target: HIV-1 Env of pseudovirus T257 (HIV-1)
[9] = molecular target: HIV-1 Env of pseudovirus ZM197 (HIV-1)
[10] = molecular target: HIV-1 Env of pseudovirus pCNE8 (HIV-1)
[11] = molecular target: HIV-1 Env of pseudovirus 3817 (HIV-1)
[12] = molecular target: HIV-1 Env of pseudovirus 278 (HIV-1)
[13] = molecular target: HIV-1 Env of pseudovirus JRCSF (HIV-1) (UniProt P20871)
[14] = molecular target: HIV-1 Env of pseudovirus BG505 (HIV-1); remark: listed apart in the source
[15] = molecular target: HIV-1 Env of pseudovirus PV0 (HIV-1); remark: listed apart in the source
[16] = molecular target: HIV-1 Env of pseudovirus X2088 (HIV-1); remark: listed apart in the source
[17] = molecular target: HIV-1 Env of pseudovirus X1632 (HIV-1); remark: listed apart in the source
[18] = molecular target: HIV-1 Env of pseudovirus THRO (HIV-1); remark: listed apart in the source
[19] = molecular target: HIV-1 Env of pseudovirus Du422 (HIV-1); remark: listed apart in the source
[20] = molecular target: HIV-1 Env of pseudovirus ZM106 (HIV-1); remark: listed apart in the source
[21] = molecular target: HIV-1 Env of pseudovirus SF162 (HIV-1) (UniProt P19550)
[22] = molecular target: HIV-1 Env of pseudovirus T257 (HIV-1); remark: listed apart in the source
[23] = molecular target: HIV-1 Env of pseudovirus ZM197 (HIV-1); remark: listed apart in the source
[24] = molecular target: HIV-1 Env of pseudovirus pCNE8 (HIV-1); remark: listed apart in the source
[25] = molecular target: HIV-1 Env of pseudovirus 3817 (HIV-1); remark: listed apart in the source
[26] = molecular target: HIV-1 Env of pseudovirus 278 (HIV-1); remark: listed apart in the source
[27] = molecular target: HIV-1 Env of pseudovirus JRCSF (HIV-1) (UniProt P20871); remark: listed apart in the source
[28] = molecular target: HIV-1 Env of pseudovirus SF162 (HIV-1) (UniProt P19550); remark: listed apart in the source

Substance	IC50, neutralization of BG505 PsV [1] [µg/mL]	IC50, neutralization of PV0 PsV [2] [µg/mL]	IC50, neutralization of X2088 PsV [3] [µg/mL]	IC50, neutralization of X1632 PsV [4] [µg/mL]	IC50, neutralization of THRO PsV [5] [µg/mL]	IC50, neutralization of Du422 PsV [6] [µg/mL]	IC50, neutralization of ZM106 PsV [7] [µg/mL]	IC50, neutralization of T257 PsV [8] [µg/mL]	IC50, neutralization of ZM197 PsV [9] [µg/mL]	IC50, neutralization of pCNE8 PsV [10] [µg/mL]	IC50, neutralization of 3817 PsV [11] [µg/mL]	IC50, neutralization of 278 PsV [12] [µg/mL]	IC50, neutralization of JRCSF PsV [13] [µg/mL]	IC50, neutralization of BG505 PsV [14] [nM]	IC50, neutralization of PV0 PsV [15] [nM]	IC50, neutralization of X2088 PsV [16] [nM]	IC50, neutralization of X1632 PsV [17] [nM]	IC50, neutralization of THRO PsV [18] [nM]	IC50, neutralization of Du422 PsV [19] [nM]	IC50, neutralization of ZM106 PsV [20] [nM]	further results
10E8v4 IgG (antibody)	1.4	6.3	> 50	2.02	0.37	0.55	> 50	1.5	0.19	0.96	3.1	1.8	1.8	9	42	> 100	13	2.5	3.7	> 100	IC50, neutralization of SF162 PsV [21]: 20 nM; IC50, neutralization of T257 PsV [22]: 9.8 nM; IC50, neutralization of ZM197 PsV [23]: 1.3 nM; IC50, neutralization of pCNE8 PsV [24]: 0.0064 µM; IC50, neutralization of 3817 PsV [25]: 21 nM; IC50, neutralization of 278 PsV [26]: 12 nM; IC50, neutralization of JRCSF PsV [27]: 12 nM
32-I multabody (PGDM1400 scFab-human apoferritin : scFc-N-Ferritin : iMab A12P scFab-C-Ferritin : 10E8v4 scFab-C-Ferritin, 4:2:1:1)	0.0026	0.12	3.1	0.008	0.033	0.7	0.0031	0.0015	0.0044	0.0013	1.8	0.008	0.004	0.0011	0.052	1.3	0.0034	0.014	0.31	0.0014	IC50, neutralization of SF162 PsV [28]: 2.5 µg/mL; IC50, neutralization of SF162 PsV [21]: 1.1 nM; IC50, neutralization of T257 PsV [22]: 0.00068 nM; IC50, neutralization of ZM197 PsV [23]: 0.0019 nM; IC50, neutralization of pCNE8 PsV [24]: 0.57 pM; IC50, neutralization of 3817 PsV [25]: 0.79 nM; IC50, neutralization of 278 PsV [26]: 0.0035 nM; IC50, neutralization of JRCSF PsV [27]: 0.0017 nM
32-N multabody (PGDM1400 scFab-human apoferritin : scFc-N-Ferritin : N49P7 scFab-C-Ferritin : 10E8v4 scFab-C-Ferritin, 4:2:1:1)	0.0045	0.33	5.2	0.0045	0.058	2.5	0.0089	0.0037	0.0096	0.0032	9.1	0.009	0.0054	0.0019	0.15	2.3	0.002	0.025	1.08	0.0039	IC50, neutralization of SF162 PsV [28]: 1.3 µg/mL; IC50, neutralization of SF162 PsV [21]: 0.58 nM; IC50, neutralization of T257 PsV [22]: 0.0016 nM; IC50, neutralization of ZM197 PsV [23]: 0.0042 nM; IC50, neutralization of pCNE8 PsV [24]: 1.4 pM; IC50, neutralization of 3817 PsV [25]: 3.9 nM; IC50, neutralization of 278 PsV [26]: 0.0039 nM; IC50, neutralization of JRCSF PsV [27]: 0.0023 nM
N6/PGDM1400x10E8v4 trispecific antibody	0.059	1.3	0.56	0.03	0.31	0.19	0.017	0.028	0.073	0.024	1.2	1.2	0.026	0.34	7.2	3.2	0.17	1.7	1.1	0.1	IC50, neutralization of SF162 PsV [28]: 0.33 µg/mL; IC50, neutralization of SF162 PsV [21]: 1.9 nM; IC50, neutralization of T257 PsV [22]: 0.16 nM; IC50, neutralization of ZM197 PsV [23]: 0.42 nM; IC50, neutralization of pCNE8 PsV [24]: 0.14 nM; IC50, neutralization of 3817 PsV [25]: 6.7 nM; IC50, neutralization of 278 PsV [26]: 7.1 nM; IC50, neutralization of JRCSF PsV [27]: 0.15 nM
N49P7 IgG (antibody)	0.21	0.28	0.38	> 50	7.5	10	0.18	1.2	0.58	0.28	3.3	> 50	0.12	1.4	1.9	2.5	> 100	50	66	1.2	IC50, neutralization of SF162 PsV [28]: 0.15 µg/mL; IC50, neutralization of SF162 PsV [21]: 1 nM; IC50, neutralization of T257 PsV [22]: 8.3 nM; IC50, neutralization of ZM197 PsV [23]: 3.9 nM; IC50, neutralization of pCNE8 PsV [24]: 0.0018 µM; IC50, neutralization of 3817 PsV [25]: 22 nM; IC50, neutralization of 278 PsV [26]: > 100 nM; IC50, neutralization of JRCSF PsV [27]: 0.85 nM
PGDM1400 IgG (antibody)	0.0032	1.3	> 50	0.018	0.09	6	0.013	0.012	0.11	0.0027	> 50	0.16	0.0074	0.02	8.4	> 100	0.12	0.61	40	0.084	IC50, neutralization of SF162 PsV [28]: > 50 µg/mL; IC50, neutralization of SF162 PsV [21]: > 100 nM; IC50, neutralization of T257 PsV [22]: 0.08 nM; IC50, neutralization of ZM197 PsV [23]: 0.68 nM; IC50, neutralization of pCNE8 PsV [24]: 18 pM; IC50, neutralization of 3817 PsV [25]: > 100 nM; IC50, neutralization of 278 PsV [26]: 1.1 nM; IC50, neutralization of JRCSF PsV [27]: 0.049 nM
